Patent US20230220589A1

Columns and labels:
[1] = target: M44-modified F NTAA target peptides (M44-F-P2-peptide); assay: encoding assay; P2 D
[2] = target: M44-modified M NTAA target peptides; assay: encoding assay; P2 D
[3] = target: M44-modified I NTAA target peptides (M44-I-P2-peptide); assay: encoding assay; P2 D
[4] = target: M44-modified Y NTAA target peptides (M44-Y-P2-peptide); assay: encoding assay; P2 D
[5] = target: M44-modified N NTAA target peptides; assay: encoding assay; P2 D
[6] = target: M44-modified L NTAA target peptides (M44-L-P2-peptide); assay: encoding assay; P2 D
[7] = target: M44-modified A NTAA target peptides (M44-A-P2-peptide); assay: encoding assay; P2 D
[8] = target: M44-modified W NTAA target peptides; assay: encoding assay; P2 D
[9] = target: M44-modified G NTAA target peptides (M44-G-P2-peptide); assay: encoding assay; P2 D
[10] = target: M44-modified D NTAA target peptides; assay: encoding assay; P2 S
[11] = target: M44-modified N NTAA target peptides; assay: encoding assay; P2 S
[12] = target: M44-modified S NTAA target peptides; assay: encoding assay; P2 S
[13] = target: M44-modified W NTAA target peptides; assay: encoding assay; P2 S
[14] = target: M44-modified E NTAA target peptides; assay: encoding assay; P2 S
[15] = target: M44-modified F NTAA target peptides (M44-F-P2-peptide); assay: encoding assay; P2 W
[16] = target: M44-modified D NTAA target peptides; assay: encoding assay; P2 W
[17] = target: M44-modified M NTAA target peptides; assay: encoding assay; P2 W
[18] = target: M44-modified V NTAA target peptides; assay: encoding assay; P2 W
[19] = target: M44-modified I NTAA target peptides (M44-I-P2-peptide); assay: encoding assay; P2 W
[20] = target: M44-modified Y NTAA target peptides (M44-Y-P2-peptide); assay: encoding assay; P2 W
[21] = target: M44-modified N NTAA target peptides; assay: encoding assay; P2 W
[22] = target: M44-modified L NTAA target peptides (M44-L-P2-peptide); assay: encoding assay; P2 W
[23] = target: M44-modified T NTAA target peptides; assay: encoding assay; P2 W
[24] = target: M44-modified Q NTAA target peptides; assay: encoding assay; P2 W
[25] = target: M44-modified H NTAA target peptides; assay: encoding assay; P2 W
[26] = target: M44-modified P NTAA target peptides; assay: encoding assay; P2 W
[27] = target: M44-modified A NTAA target peptides (M44-A-P2-peptide); assay: encoding assay; P2 W
[28] = target: M44-modified S NTAA target peptides; assay: encoding assay; P2 W
[29] = target: M44-modified W NTAA target peptides; assay: encoding assay; P2 W
[30] = target: M44-modified G NTAA target peptides (M44-G-P2-peptide); assay: encoding assay; P2 W
[31] = target: M44-modified G NTAA target peptides (M44-G-P2-peptide); assay: encoding assay; P2 E
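Further: fraction of recording tags encoded.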

B1: engineered M44-A binder (SEQ ID NO: 42) (designed binder, not shown: small tags and cut ends; large carriers)
chain: QVSVQPNFQQDKFLGRWFVAGLASNSSWDREKVAALSGAKMVVAPATDGGLNVTRTMLRKNQCETYTGLLQPAGSLGSYSWRSPHPGSTGSESVVETDYDQYALVYGQGSKGPGEDLRAAALWSRTQTPRAELKEKFTAFSKAQGFTEDTIVFLPQTDKCMTEQ
With B1 the encoding yield [1] was 0.06, the encoding yield [2] was 0.04 and the encoding yield [3] was 0.02. The encoding yield [4] was 0.03, the encoding yield [5] was 0.02 and the encoding yield [6] was 0.04. For the same binder, the encoding yield [7] was 0.03, the encoding yield [8] was 0.03 and the encoding yield [9] was 0.03. For the same binder, the encoding yield [10] was 0.02, the encoding yield [11] was 0.01 and the encoding yield [12] was 0.01. For the same binder, the encoding yield [13] was 0.01, the encoding yield [14] was 0.01 and the encoding yield [15] was 0.18. The encoding yield [16] was 0.02, the encoding yield [17] was 0.03 and the encoding yield [18] was 0.22. It also gave an encoding yield [19] of 0.21, an encoding yield [20] of 0.06 and an encoding yield [21] of 0.05. The encoding yield [22] was 0.07, the encoding yield [23] was 0.13 and the encoding yield [24] was 0.03. For the same binder, the encoding yield [25] was 0.04, the encoding yield [26] was 0.04 and the encoding yield [27] was 0.28. For the same binder, the encoding yield [28] was 0.13, the encoding yield [29] was 0.05 and the encoding yield [30] was 0.02. For the same binder, the encoding yield [31] was 0.01.
